Data on 18 molecules can be found in paper PMC7203112, “Structural basis for the complex DNA binding behavior of the plant stem cell regulator WUSCHEL”.

Residue numbers refer to the chain shown, from its start. In names and notes the source's numbering stands.

The target of one data set is T1, YFP-WUS-HD (Arabidopsis thaliana, UniProt Q9SB92 34-103).
T1 sequence: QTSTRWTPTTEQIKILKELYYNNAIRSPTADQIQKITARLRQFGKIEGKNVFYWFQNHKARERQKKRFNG
Kind of data set: MST; MST: 20 mM Tris-HCl pH 8.0, 75 mM NaCl, 10 mM MgCl2, 0.05% Tween-20, 20 C, 50 nM YFP-WUS; ITC: same without Tween, 20 C; EMSA: 10 mM Tris-HCl pH 8.0, 75 mM NaCl, 50 ug/ml poly(dI-dC), 1 mM EDTA, 1 mM DTT, 5% glycerol. Particulars: protein: recombinant; tags: N-terminal His6-YFP, C-terminal StrepII; blunt.

The target in data set [1] is T2, WUS-HD (Arabidopsis thaliana, UniProt Q9SB92 34-103).
T2 sequence: T1 sequence
The data set can be described thus: EMSA; shift slightly modified; MST: 20 mM Tris-HCl pH 8.0, 75 mM NaCl, 10 mM MgCl2, 0.05% Tween-20, 20 C, 50 nM YFP-WUS; ITC: same without Tween, 20 C; EMSA: 10 mM Tris-HCl pH 8.0, 75 mM NaCl, 50 ug/ml poly(dI-dC), 1 mM EDTA, 1 mM DTT, 5% glycerol. Particulars: protein: recombinant; tags: none after TEV cleavage (from His6-MBP); label: Cy5; blunt. (In EMSA bound probe runs differently from free probe, usually more slowly.)

For the next data set, the target named is T3, YFP-WUS-HD T35R (Arabidopsis thaliana, UniProt Q9SB92 34-103, T35R).
T3 sequence: T1 sequence with T2R
The data set can be described thus: MST; MST: 20 mM Tris-HCl pH 8.0, 75 mM NaCl, 10 mM MgCl2, 0.05% Tween-20, 20 C, 50 nM YFP-WUS; ITC: same without Tween, 20 C; EMSA: 10 mM Tris-HCl pH 8.0, 75 mM NaCl, 50 ug/ml poly(dI-dC), 1 mM EDTA, 1 mM DTT, 5% glycerol. The settings on record: protein: recombinant; tags: N-terminal His6-YFP, C-terminal StrepII; blunt.

For another data set, the target named is T4, YFP-WUS-HD S36R (Arabidopsis thaliana, UniProt Q9SB92 34-103, S36R).
T4 sequence: T1 sequence with S3R
The data set is described as above. The settings on record: protein: recombinant; tags: N-terminal His6-YFP, C-terminal StrepII; blunt.

A further data set addresses T5, YFP-WUS-HD R94K (Arabidopsis thaliana, UniProt Q9SB92 34-103, R94K).
T5 sequence: T1 sequence with R61K
The description is as above. The settings on record: protein: recombinant; tags: N-terminal His6-YFP, C-terminal StrepII; blunt.

Data set [2] addresses T2, WUS-HD. Kind of data set: crystal structure; 2.8 A; two or three HD per DNA; MST: 20 mM Tris-HCl pH 8.0, 75 mM NaCl, 10 mM MgCl2, 0.05% Tween-20, 20 C, 50 nM YFP-WUS; ITC: same without Tween, 20 C; EMSA: 10 mM Tris-HCl pH 8.0, 75 mM NaCl, 50 ug/ml poly(dI-dC), 1 mM EDTA, 1 mM DTT, 5% glycerol. The settings on record: protein: recombinant; tags: none after TEV cleavage (from His6-MBP); blunt.

A further data set deals with T6, MBP-WUS-FL (Arabidopsis thaliana, UniProt Q9SB92 1-292).
T6 sequence: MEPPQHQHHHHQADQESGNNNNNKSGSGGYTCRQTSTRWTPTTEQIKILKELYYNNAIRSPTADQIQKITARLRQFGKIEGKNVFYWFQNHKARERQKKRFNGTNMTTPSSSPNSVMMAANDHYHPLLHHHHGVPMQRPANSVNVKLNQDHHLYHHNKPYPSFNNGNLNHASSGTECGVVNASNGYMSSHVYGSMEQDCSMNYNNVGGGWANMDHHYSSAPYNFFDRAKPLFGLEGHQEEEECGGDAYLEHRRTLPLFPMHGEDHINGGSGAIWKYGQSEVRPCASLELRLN
Kind of data set: EMSA; MST: 20 mM Tris-HCl pH 8.0, 75 mM NaCl, 10 mM MgCl2, 0.05% Tween-20, 20 C, 50 nM YFP-WUS; ITC: same without Tween, 20 C; EMSA: 10 mM Tris-HCl pH 8.0, 75 mM NaCl, 50 ug/ml poly(dI-dC), 1 mM EDTA, 1 mM DTT, 5% glycerol. The settings on record: protein: recombinant; tags: N-terminal His6-MBP; chain copies: 2; label: Cy5; blunt.

For data set [3], the target named is T2, WUS-HD. The description is as above. Particulars: protein: recombinant; tags: none after TEV cleavage (from His6-MBP); label: Cy5; blunt.
The target of data set [4] is T2, WUS-HD. Kind of data set: ITC; first binding event (Kd,1), sequential model, 2:1; MST: 20 mM Tris-HCl pH 8.0, 75 mM NaCl, 10 mM MgCl2, 0.05% Tween-20, 20 C, 50 nM YFP-WUS; ITC: same without Tween, 20 C; EMSA: 10 mM Tris-HCl pH 8.0, 75 mM NaCl, 50 ug/ml poly(dI-dC), 1 mM EDTA, 1 mM DTT, 5% glycerol. The settings on record: protein: recombinant; tags: none after TEV cleavage (from His6-MBP); blunt. For orientation: ITC needs no label: the signal is the heat of the interaction.

For another data set, the target named is T7, YFP-WUS-HD F85A (Arabidopsis thaliana, UniProt Q9SB92 34-103, F85A).
T7 sequence: T1 sequence with F52A
Kind of data set: MST; MST: 20 mM Tris-HCl pH 8.0, 75 mM NaCl, 10 mM MgCl2, 0.05% Tween-20, 20 C, 50 nM YFP-WUS; ITC: same without Tween, 20 C; EMSA: 10 mM Tris-HCl pH 8.0, 75 mM NaCl, 50 ug/ml poly(dI-dC), 1 mM EDTA, 1 mM DTT, 5% glycerol. The settings on record: protein: recombinant; tags: N-terminal His6-YFP, C-terminal StrepII; blunt.

A further data set has as its target T8, YFP-WUS-HD I66A (Arabidopsis thaliana, UniProt Q9SB92 34-103, I66A).
T8 sequence: T1 sequence with I33A
The data set is described as above. The settings on record: protein: recombinant; tags: N-terminal His6-YFP, C-terminal StrepII; blunt.

Another data set has as its target T9, YFP-WUS-HD F101A (Arabidopsis thaliana, UniProt Q9SB92 34-103, F101A).
T9 sequence: T1 sequence with F68A
Described as above. The settings on record: protein: recombinant; tags: N-terminal His6-YFP, C-terminal StrepII; blunt.

B1: 2xTGAA 1xSpacing (dsDNA)
DNA 1: CGCTGAACTGAACGCC
DNA 2: GGCGTTCAGTTCAGCG
Broadly, the Kd is the free concentration of one partner at which half of the binding sites on the other are occupied at equilibrium, for simple one-to-one binding. In the case of B1, the Kd with YFP-WUS-HD was determined as 2.21 ± 0.25 µM.

B2: f_TAAT T12C,T15C (dsDNA)
DNA 1: GTGTTAATGGGCTGCG
DNA 2: CGCAGCCCATTAACAC
For B2, the binding result in the data set with WUS-HD [1] was “binds”.

B3: 3xTGAG (dsDNA)
DNA 1: CGTGAGTGAGTGAGCC
DNA 2: GGCTCACTCACTCACG
With B3, the Kd in the data set with YFP-WUS-HD is 1.42 ± 0.17 µM.

B4: 1xTGAA (dsDNA)
DNA 1: CGCCGGTGAAGCCGCC
DNA 2: GGCGGCTTCACCGGCG
As to B4, the Kd with YFP-WUS-HD stood at 10.5 ± 2.3 µM.

B5: TGAA Head-to-Head (dsDNA)
DNA 1: CGCCTTCATGAACGCC
DNA 2: GGCGTTCATGAAGGCG
On to B5, for which the Kd in the data set with YFP-WUS-HD stood at 3.17 ± 0.35 µM.

B6: TAAT 16-bp (dsDNA)
DNA 1: GTGTTAATGGGTTGTG
DNA 2: CACAACCCATTAACAC
Take B6: the Kd with YFP-WUS-HD T35R came to 1.67 ± 0.2 µM; with YFP-WUS-HD S36R it was 1.67 ± 0.17 µM; in the data set with YFP-WUS-HD R94K it was 4.59 ± 0.58 µM. Further, in the data set with WUS-HD [2], the binding result is “binds”.

B7: 3xTGAT (dsDNA)
DNA 1: CGTGATTGATTGATCC
DNA 2: GGATCAATCAATCACG
Regarding B7, in the data set with YFP-WUS-HD, the Kd amounted to 0.12 ± 0.01 µM.

B8: 3xTGAA (dsDNA)
DNA 1: CGTGAATGAATGAACC
DNA 2: GGTTCATTCATTCACG
For the molecule B8, the Kd with YFP-WUS-HD is 0.06 ± 0.01 µM.

B9: f_G-Box (dsDNA)
DNA 1: CATCGTCGTCACGTGATGGG
DNA 2: CCCATCACGTGACGACGATG
In the case of B9, the Kd with MBP-WUS-FL came out at 1.68 ± 0.3 µM.

B10: TGAA 16-bp (dsDNA)
DNA 1: AGTGTATGAATGAACG
DNA 2: CGTTCATTCATACACT
As to B10, the Kd with YFP-WUS-HD T35R turned out to be 0.54 ± 0.07 µM; with YFP-WUS-HD S36R it was 0.32 ± 0.03 µM; with YFP-WUS-HD R94K, 11 ± 1.62 µM; with YFP-WUS-HD, 0.27 ± 0.03 µM.

B11: f_TAAT wt 16-bp (dsDNA)
DNA 1: GTGTTAATGGGTTGTG
DNA 2: CACAACCCATTAACAC
Regarding B11, the binding result with WUS-HD [3] is reported as “binds”.

B12: TGAA Tail-to-Tail (dsDNA)
DNA 1: CGCCTGAATTCACGCC
DNA 2: GGCGTGAATTCAGGCG
For B12, the Kd with YFP-WUS-HD worked out at 1.9 ± 0.2 µM.

B13: f_TAAT T12C (dsDNA)
DNA 1: GTGTTAATGGGCTGTG
DNA 2: CACAGCCCATTAACAC
Consider B13, for which the binding result in the data set with WUS-HD [3] is “binds”.

B14: 2xTGAA (dsDNA)
DNA 1: CGCCTGAATGAACGCC
DNA 2: GGCGTTCATTCAGGCG
As to B14, the Kd in the data set with WUS-HD [4] came out at 1.24 ± 0.14 µM; in the data set with YFP-WUS-HD F85A it was 6.81 ± 0.87 µM; in the data set with YFP-WUS-HD I66A, 8.2 ± 0.84 µM; with YFP-WUS-HD it was 0.3 ± 0.04 µM; in the data set with YFP-WUS-HD F101A it was 0.8 ± 0.12 µM.

B15: G-Box 16-bp (dsDNA)
DNA 1: GTCGTCACGTGATGGG
DNA 2: CCCATCACGTGACGAC
B15: the Kd in the data set with YFP-WUS-HD came out at 3.78 ± 0.42 µM.

B16: 3xTGAA 1xSpacing (dsDNA)
DNA 1: CTGAACTGAACTGAAC
DNA 2: GTTCAGTTCAGTTCAG
Take B16: in the data set with YFP-WUS-HD, the Kd is 0.84 ± 0.12 µM.

B17: 3xTGAC (dsDNA)
DNA 1: CGTGACTGACTGACCC
DNA 2: GGGTCAGTCAGTCACG
As to B17, in the data set with YFP-WUS-HD, the Kd came to 0.39 ± 0.05 µM.

B18: 2xTGAA 4xSpacing (dsDNA)
DNA 1: CGTGAAGCGCTGAACC
DNA 2: GGTTCAGCGCTTCACG
In the case of B18, the Kd with YFP-WUS-HD is 3.58 ± 0.44 µM.
